These results are taken from US9670249B2, “Amphiphilic peptides and hydrogel matrices thereof for bone repair” (Ben-Gurion University of the Negev Research and Development …, priority 2006, dated 2017).

Data set [1] in a line: Hydrogel formation by dissolving peptides in NaOH solution. The class given is physicochemical. The conditions noted are these: for Resultant pH / Self supporting gel formation assigned+: 4% weight peptide in 100 μl NaOH solution; for pH at which hydrogel is stabilized / formed: 0.023M peptide in NaOH solutions. On the procedure:
In general the matrix can be formed in the following way: dissolving the peptides at high pH above about 8) using either buffer (Tris) or NaOH. With the addition of the peptide the pH of the mixture drops and hydrogel may form. The peptide that is dissolved in alkaline solution can be titrated with HCl to a pH ˜7 to form yield a gel. The same can be done with HA or other mineral particles incorporated in the first step […]. Upon gelation the particles get trapped in the gel.
Four peptides were tested for their tendency to form hydrogels as function of pH and Ca^+2 ion concentrations. The peptides are 13 amino acids long having the sequence P-Y-(Z-Y)n-P, wherein n=5 and Y and Z are alternating hydrophilic (Y) and hydrophobic (Z) amino acids:
The experiment goal was to find appropriate conditions for hydrogel formation at physiological pH values (˜7.2) assuming that the type of amino acids in the dyads will determine the propensity of the system to form hydrogles thus the pH and the Ca^+2 ionic concentration of the system.
In an alkaline solution the acidic amino acid side chains tend to be negatively charged. Under these conditions charge-charge repulsive forces keep the peptides dissolved in solution. Upon lowering the pH the peptides which become uncharged undergo self-assembling through inter-strand hydrogen bonding, to form fibrous structure (FIG. 3) that stabilizes highly hydrated-gel, hydrogel. […] All the peptides lowered the pH of the solution to about 6-8 (Table 1).
In the next set of experiments the hypothesis that the more hydrophobic side chains would stabilize the beta-sheet fibril thus hydrogel formation, at higher pH values, was tested. Table 2 summarizes the effect of the hydrophobic side chain on the pH at which hydrogel is obtained. PLE-13 and PFE-13 were dissolved in different NaOH solutions to the same molar concentration (0.023M). […]

Experiment in data set [2]: as above
Type of data set: physicochemical. The conditions noted are these: 4% weight peptide in 100 μl NaOH solution, NaOH conc. 0.03.

No end group written: not given here.

For the substance (Phe-Asp)6 (FDFDFDFDFDFD), the “Resultant pH” value is reported as ~6 in data set [1] (NaOH conc. 0.03) and ~7 in data set [1] (NaOH conc. 0.05).

For “Ac-Pro-Asp-(Phe-Asp)5-Pro-NH2 (Ac-PDFDFDFDFDFDP-NH2)”, in data set [1] (NaOH conc. 0.03), the “Resultant pH” value was ~6. Further, in data set [1] (NaOH conc. 0.05), the “Resultant pH” value was >7.5 and the “Self supporting gel formation assigned+” value was “Viscous liquid”.

On to PDFDFDFDFDFDP [PFD-13, PD(FD)5P], for which the “pH at which hydrogel is stabilized / formed” value in data set [1] is ~7.

In the case of PDLDLDLDLDLDP [PLD-13, PD(LD)5P], the “pH at which hydrogel is stabilized / formed” value in data set [1] is on record as “forms hydrogel at lower pH compared to that of PFD-13”.

Turning to PEFEFEFEFEFEP [PFE-13, PE(FE)5P], the “pH at which hydrogel is stabilized / formed” value in data set [1] was > 7.

Consider PELELELELELEP [PLE-13, PE(LE)5P], for which the “pH at which hydrogel is stabilized / formed” value in data set [1] is on record as ~6.5.

Take Pro-Asp-(Phe-Asp)6 (PDFDFDFDFDFDFD): in data set [1] (NaOH conc. 0.03), the “Resultant pH” value is given as ~6. Besides, in data set [1] (NaOH conc. 0.05), the “Resultant pH” value is ~7 and the “Self supporting gel formation assigned+” value is “+after several hrs”.

As to “Pro-Asp-Phe-Asp (PDFD; printed: Pro-Asp-Phe-Asp)”, the “Self supporting gel formation assigned+” value in data set [2] and in data set [1] (NaOH conc. 0.05) was “liquid” each time. Also, the “Resultant pH” value is reported as ~3 in data set [1] (NaOH conc. 0.03) and ~4 in data set [1] (NaOH conc. 0.05).
